Measured values as given in US20100009920.

Legend:
[1] = target: GST-tagged EGFR-DEL2 protein (amino acid 889-1045)
[2] = target: T1, EGFR-DEL4 (amino acid 977-1045) protein
T1 chain: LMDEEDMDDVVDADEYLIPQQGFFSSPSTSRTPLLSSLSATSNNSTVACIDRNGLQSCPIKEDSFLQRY

[3] = target: GST-tagged EGFR-DEL2 (Y992A) protein
[4] = target: T2, GST-tagged EGFR-DEL3 (amino acid 1046-1186)
T2 chain: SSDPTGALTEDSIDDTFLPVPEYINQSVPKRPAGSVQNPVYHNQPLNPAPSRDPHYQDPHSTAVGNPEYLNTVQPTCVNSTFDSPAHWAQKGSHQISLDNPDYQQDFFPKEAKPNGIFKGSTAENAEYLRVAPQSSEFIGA

[5] = target: T3, GST-tagged EGFR-DEL1 (amino acid 692-891)
T3 chain: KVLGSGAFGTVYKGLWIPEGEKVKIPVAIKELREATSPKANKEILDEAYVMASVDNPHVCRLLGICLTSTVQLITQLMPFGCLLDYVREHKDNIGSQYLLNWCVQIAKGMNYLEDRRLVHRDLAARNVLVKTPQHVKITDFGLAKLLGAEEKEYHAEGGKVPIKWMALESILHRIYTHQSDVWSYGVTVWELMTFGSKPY

[6] = target: catalytically-active recombinant GST-tagged human EGFR (active-rhEGFR; Upstate), P00533

B1: purified recombinant His-tagged TTK (protein)
chain: MESEDLSGRELTIDSIMNKVRDIKNKFKNEDLTDELSLNKISADTTDNSGTVNQIMMMANNPEDWLSLLLKLEKNSVPLSDALLNKLIGRYSQAIEALPPDKYGQNESFARIQVRFAELKAIQEPDDARDYFQMARANCKKFAFVHISFAQFELSQGNVKKSKQLLQKAVERGAVPLEMLEIALRNLNLQKKQLLSEEEKKNLSASTVLTAQESFSGSLGHLQNRNNSCDSRGQTTKARFLYGENMPPQDAEIGYRNSLRQTNKTKQSCPFGRVPVNLLNSPDCDVKTDDSVVPCFMKRQTSRSECRDLVVPGSKPSGNDSCELRNLKSVQNSHFKEPLVSDEKSSELIITDSITLKNKTESSLLAKLEETKEYQEPEVPESNQKQWQSKRKSECINQNPAASSNHWQIPELARKVNTEQKHTTFEQPVFSVSKQSPPISTSKWFDPKSICKTPSSNTLDDYMSCFRTPVVKNDFPPACQLSTPYGQPACFQQQQHQILATPLQNLQVLASSSANECISVKGRIYSILKQIGSGGSSKVFQVLNEKKQIYAIKYVNLEEADNQTLDSYRNEIAYLNKLQQHSDKIIRLYDYEITDQYIYMVMECGNIDLNSWLKKKKSIDPWERKSYWKNMLEAVHTIHQHGIVHSDLKPANFLIVDGMLKLIDFGIANQMQPDTTSVVKDSQVGTVNYMPPEAIKDMSSSRENGKSKSKISPKSDVWSLGCILYYMTYGKTPFQQIINQISKLHAIIDPNHEIEFPDIPEKDLQDVLKCCLKRDPKQRISIPELLAHPYVQIQTHPVNQMAKGTTEEMKYVLGQLVGLNSPNSILKAAKTLYEHYSGGESHNSSSSKTFEKKRGKK
phosphorylation of EGFR Tyr-992 (in vitro kinase assay, western blot) [1]: Phosphorylation of EGFR Tyr-992 in GST-tagged EGFR-DEL2 protein (amino acid 889-1045) was promoted in a TTK-dose dependent manner
phosphorylation site by MALDI tandem mass spectrometry after in vitro phosphorylation [1]: phosphorylation of EGFR Ser-967 was identified (data not shown)
phosphorylation of EGFR Tyr-992 (in vitro kinase assay) [2]: EGFR-DEL4 (amino acid 977-1045) protein was not phosphorylated at Tyr-992 (data not shown)
32P incorporation ([gamma-32P] ATP in vitro kinase assay, autoradiography) [3]: This mutation remarkably reduced the intensity of lower-band, but did not reduce that of upper-band
tyrosine phosphorylation (in vitro kinase assay, western blot) [4]: other tyrosine residues in GST-tagged EGFR-DEL1 (amino acid 692-891), EGFR-DEL2 and EGFR-DEL3 (amino acid 1046-1186) proteins were not phosphorylated at all
tyrosine phosphorylation (in vitro kinase assay, western blot) [5]: other tyrosine residues in GST-tagged EGFR-DEL1 (amino acid 692-891), EGFR-DEL2 and EGFR-DEL3 (amino acid 1046-1186) proteins were not phosphorylated at all
tyrosine phosphorylation of active-rhEGFR (in vitro kinase assay, anti-phospho-tyrosine western blot) [6]: the phosphorylation of active-rhEGFR by TTK was not inhibited by AG1478
